Measurements published in patent US7834144B2 (priority 2005, dated 2010).
“And” between values parts separate entries of the source, which are not always exact repeats. Identical values can stand only once. Like-named read-outs stand apart in the source and are kept apart here. Where no end group is shown, it is not given here. [ ]: non-standard residue; d: D form. Nab = not defined here; Nbn = not defined here

What was measured:
PrP^Sc [1] = biological target: T1, PrP^Sc (Homo sapiens, UniProt P04156); conditions: Table 15
PrPc = PrPc (Homo sapiens, UniProt P04156)
PrP^Sc [2] = biological target: T1, PrP^Sc; conditions: Table 16
PrP^Sc [3] = biological target: T1, PrP^Sc
PrP^Sc [4] = biological target: T1, PrP^Sc; remark: listed apart in the source
PrP^Sc [5] = biological target: T1, PrP^Sc; remark: listed apart in the source
[6] = H3PO4 (50 μl) 0.00007M, pH 4, NaOH (25 μl) 0.0031N
[7] = H3PO4 (50 μl) 0.00075M, pH 3, NaOH (25 μl) 0.031N
[8] = H3PO4 (50 μl) 0.12M, pH 2, NaOH (25 μl) 0.31N
[9] = H3PO4 (50 μl) 0.5M, pH 1, NaOH (25 μl) 3.1N
[10] = NaOH (50 μl) 0.0001M, pH 10, NaH2PO4 (20 μl) 0.0003M
[11] = NaOH (50 μl) 0.001M, pH 11, NaH2PO4 (20 μl) 0.003M
[12] = NaOH (50 μl) 0.1M, pH 12, NaH2PO4 (20 μl) 0.03M
[13] = NaOH (50 μl) 0.1M, pH 13, NaH2PO4 (20 μl) 0.3M

## Peptoid Reagent XIIb: peptoid reagent comprising SEQ ID NO: 240, Nab-Nab-Nab-Nbn-Nab-Nbn, covalently bound to magnetic beads ([Nab][Nab][Nab][Nbn][Nab][Nbn]; reading uncertain; also: covalently bound to magnetic beads, printed as Nab-Nab-Nab-Nbn-Nab-Nbn)
PrP^Sc [1]; 15 μl GdnSCN 3M, pH 5.9
  S/N: 11
PrP^Sc [1]; 15 μl GdnSCN 3M, pH 5.9, 210 μl H20, final pH 6.0
  AVE vCJD + Plasma: 430.4
PrP^Sc [1]; 70 μl TBST, pH 7.5
  AVE vCJD + Plasma: 25.5
  S/N: 2
PrP^Sc [1]; H3PO4 0.00007M, pH 4
  S/N: 1
PrP^Sc [1]; H3PO4 0.00075M, pH 3
  S/N: 1
PrP^Sc [1]; H3PO4 0.12M, pH 2
  S/N: 1
PrP^Sc [1]; H3PO4 0.5M, pH 1
  S/N: 9
PrP^Sc [1]; [6]
  AVE vCJD + Plasma: 27.0
PrP^Sc [1]; [7]
  AVE vCJD + Plasma: 26.6
PrP^Sc [1]; [8]
  AVE vCJD + Plasma: 122.5
PrP^Sc [1]; [9]
  AVE vCJD + Plasma: 264.0
PrP^Sc [1]; NaOH 0.0001M, pH 10
  S/N: 0
PrP^Sc [1]; NaOH 0.001M, pH 11
  S/N: 1
PrP^Sc [1]; NaOH 0.1M, pH 12
  S/N: 5
PrP^Sc [1]; NaOH 0.1M, pH 13
  S/N: 30
PrP^Sc [1]; [10]
  AVE vCJD + Plasma: 34.8
PrP^Sc [1]; [11]
  AVE vCJD + Plasma: 11.8
PrP^Sc [1]; [12]
  AVE vCJD + Plasma: 76.1
PrP^Sc [1]; [13]
  AVE vCJD + Plasma: 458.1
PrPc; 10 nL of 10% normal BH in 50% pooled normal human plasma, XIIb-beads
  Nomal BH (RLU) ave, Pulldown: 9.9 RLU
PrPc; no BH, 50% pooled normal human plasma, XIIb-beads (background)
  No BH (RLU) ave, Pulldown: 9.0 RLU
PrP^Sc [2]; 50 μl GdnSCN 3M, pH 5.9, 50 μl NaHCO3, final pH 8.5
  AVE vCJD + Plasma: 60.5
PrP^Sc [2]; 100 μl TBST, pH 7.5
  AVE vCJD + Plasma: 2.2
  S/N: 1
PrP^Sc [2]; H3PO4 0.00007M, pH 4
  S/N: 1
PrP^Sc [2]; H3PO4 0.00075M, pH 3
  S/N: 1
PrP^Sc [2]; H3PO4 0.12M, pH 2
  S/N: 2
PrP^Sc [2]; H3PO4 0.5M, pH 1
  S/N: 5
PrP^Sc [2]; [6]
  AVE vCJD + Plasma: 7.6
PrP^Sc [2]; [7]
  AVE vCJD + Plasma: 21.8
PrP^Sc [2]; [8]
  AVE vCJD + Plasma: 14.6
PrP^Sc [2]; [9]
  AVE vCJD + Plasma: 57.1
PrP^Sc [2]; NaOH 0.0001M, pH 10
  S/N: 1
PrP^Sc [2]; NaOH 0.001M, pH 11
  S/N: 2
PrP^Sc [2]; NaOH 0.1M, pH 12
  S/N: 1
PrP^Sc [2]; NaOH 0.1M, pH 13
  S/N: 7
PrP^Sc [2]; [10]
  AVE vCJD + Plasma: 2.8
PrP^Sc [2]; [11]
  AVE vCJD + Plasma: 8.8
PrP^Sc [2]; [12]
  AVE vCJD + Plasma: 7.3
PrP^Sc [2]; [13]
  AVE vCJD + Plasma: 36.9
PrP^Sc [3]; 47 pg PrP^Sc pulled down vs 7 pg of about 488 pg PrP^C
  enrichment of PrP^Sc over PrP^C: ≥ 70 fold
PrP^Sc [3]; 0.05 μl vCJD BH spiked into 70 μl plasma, versus background
  increase in signal: four fold increase in signal
PrP^Sc [3]; 70 ul plasma (70%) + 50 nl 10% vCJD BH, 3M GdnSCN
  LU, Pulldown, PrPSc: 97.1 LU
PrP^Sc [3]; 70 ul plasma (70%) + 50 nl 10% vCJD BH, 3M GdnSCN, rPrP standard curve
  pg, Pulldown, PrPSc: 47 pg and 47.1 pg
PrP^Sc [4]; 10 nL of 10% vCJD BH in 50% pooled normal human plasma, XIIb-beads, 0.1N NaOH
  vCJD BH (RLU) ave, Pulldown: 53.0 RLU
PrP^Sc [4]; pulldown signal vs directly GdnSCN-denatured 10 nL 10% vCJD sample
  pulldown efficiency: ~100%
PrP^Sc [5]; vCJD 0 nL BH/asy (background)
  Avg LU, 3F4 Beads: 1.62 LU
  Avg LU, C17 Beads: 11.84 LU
  S/N, 3F4 Beads: 1.0
  S/N, C17 Beads: 1.0
PrP^Sc [5]; vCJD 1 nL BH/asy
  Avg LU, 3F4 Beads: 3.11 LU
  Avg LU, C17 Beads: 16.53 LU
  S/N, 3F4 Beads: 1.9
  S/N, C17 Beads: 1.4
PrP^Sc [5]; vCJD 5 nL BH/asy
  Avg LU, 3F4 Beads: 2.25 LU
  Avg LU, C17 Beads: 26.08 LU
  S/N, 3F4 Beads: 1.4
  S/N, C17 Beads: 2.2
PrP^Sc [5]; vCJD 10 nL BH/asy
  S/N, 3F4 Beads: 1.7
  S/N, C17 Beads: 3.5
PrP^Sc [5]; vCJD 10 nL BH/asy, 3F4 capture, C2-AP detection
  Avg LU, 3F4 Beads: 2.83 LU
